T1: human Fas-Fc (human, UniProt P25445 26-170, limits assumed)
T1 construct: Negative control protein; also called hFas-Fc; not shown: Fc portion
T1 sequence (looked up): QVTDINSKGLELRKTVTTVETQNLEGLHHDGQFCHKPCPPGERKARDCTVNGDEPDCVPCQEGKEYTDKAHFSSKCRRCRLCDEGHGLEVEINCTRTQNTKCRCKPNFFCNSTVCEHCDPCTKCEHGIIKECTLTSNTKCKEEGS

T2: human EDAR domains I and II fused to Fc of human IgG1 (human, UniProt Q9UNE0 27-114)
T2 construct: Tested as supernatant of transfected 293T cells; also called CRD1 and CRD2 EDAR-Fc truncation protein; fragment made up of domains I and II; not shown: Fc region of human IgG1
T2 sequence: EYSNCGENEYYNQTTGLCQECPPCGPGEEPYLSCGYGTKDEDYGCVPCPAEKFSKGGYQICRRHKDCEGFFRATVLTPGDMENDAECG

T3: human EDAR domain I alone fused to Fc of human IgG1 (human, UniProt Q9UNE0 27-72)
T3 construct: also called CRD1 EDAR-Fc truncation protein; not shown: Fc region of human IgG1
T3 chain: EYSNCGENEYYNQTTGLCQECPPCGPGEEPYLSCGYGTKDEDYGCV

T4: Flag-human APRIL (human, UniProt O75888 110-250, limits assumed)
T4 construct: Control antigen; not shown: Flag tag
T4 sequence (looked up): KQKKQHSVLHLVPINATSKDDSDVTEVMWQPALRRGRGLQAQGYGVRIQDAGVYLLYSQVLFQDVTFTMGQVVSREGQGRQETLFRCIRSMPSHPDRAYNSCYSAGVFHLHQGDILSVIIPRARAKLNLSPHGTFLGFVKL

T5: human EDAR domain II alone fused to Fc of human IgG1 (human, UniProt Q9R187 73-114 (mouse entry), limits assumed)
T5 construct: also called CRD2 EDAR-Fc truncation protein; not shown: Fc region of human IgG1
T5 chain: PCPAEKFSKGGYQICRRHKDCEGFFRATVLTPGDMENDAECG

T6: human EDAR stalk domain alone fused to Fc of human IgG1 (human, limits assumed)
T6 construct: also called stalk EDAR-Fc truncation protein; not shown: Fc region of human IgG1
T6 chain: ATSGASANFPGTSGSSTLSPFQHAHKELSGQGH

T7: mEDAR-Fas on Fas-deficient Jurkat cells (mouse; human, UniProt P25445 169-335, limits assumed)
T7 sequence: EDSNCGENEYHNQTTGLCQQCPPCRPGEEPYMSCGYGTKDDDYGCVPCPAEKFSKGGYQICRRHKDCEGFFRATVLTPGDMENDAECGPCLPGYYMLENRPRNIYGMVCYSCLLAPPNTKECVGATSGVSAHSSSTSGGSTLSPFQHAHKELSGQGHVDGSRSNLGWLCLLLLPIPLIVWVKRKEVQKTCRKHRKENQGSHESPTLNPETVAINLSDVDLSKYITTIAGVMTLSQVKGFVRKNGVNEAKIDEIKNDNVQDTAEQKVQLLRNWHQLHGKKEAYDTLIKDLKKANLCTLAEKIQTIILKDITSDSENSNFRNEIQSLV

T8: hEDAR-Fas on Fas-deficient Jurkat cells (human, UniProt P25445 169-335, limits assumed)
T8 sequence: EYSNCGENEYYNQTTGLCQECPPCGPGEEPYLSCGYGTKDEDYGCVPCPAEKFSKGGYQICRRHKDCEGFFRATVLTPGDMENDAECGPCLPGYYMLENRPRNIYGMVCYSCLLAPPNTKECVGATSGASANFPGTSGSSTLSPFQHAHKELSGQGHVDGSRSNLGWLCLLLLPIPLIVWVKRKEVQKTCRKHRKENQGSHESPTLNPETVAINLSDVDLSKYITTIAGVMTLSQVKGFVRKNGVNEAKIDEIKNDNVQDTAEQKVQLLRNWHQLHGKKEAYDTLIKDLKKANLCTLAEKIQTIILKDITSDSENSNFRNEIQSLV


Tests used:
mouse EDAR-Fc = target: T9, mouse EDAR-Fc (mouse); test: ELISA on mouse EDAR-Fc (FIG. 9)
T9 construct: also called mouse EDAR (1-183)-Fc; soluble mouse EDAR-Fc fusion protein
Source text: FIG. 9. Epitope mapping of anti-EDAR monoclonal antibodies on recombinant human EDAR by ELISA. (A) Schematic linear representation of human EDAR showing the position of cystein residues (thin horizontal lines), of the putative N-linked glycosylation site (thick horizontal line, N), of the six structural modules (rectangles with rounded corners) composing the three cystein-rich domains (CRD1, CRD2, CRD3), of the transmembrane domain (rectangle, TMD), of the signal peptide (Leader), of the stalk and of the intracellular domain (ID). Amino acid numbers at the junctions of interest are indicated. The arrow indicates the predicted cleavage site of the signal peptide. The scheme is drawn to scale, except for the intracellular domain. (B) Wells of ELISA plates were coated with goat anti-human IgG antibody, blocked, and further incubated with human EDAR-Fc, mouse EDAR-Fc or the indicated human EDAR-Fc truncation proteins in cell supernatants of transfected cells. […] Binding of mAbEDARs were monitored with horseradish peroxydase-coupled anti-mouse IgG antibody.
In order to obtain antibodies recognizing both human and mouse EDAR, a feature which would considerably facilitate pre-clinical development of drug candidates, EDAR-deficient mice were immunized with human EDAR. It was then assessed whether monoclonal antibodies generated from these mice indeed recognized EDAR from these two animal species. […]

human EDAR-Fc = target: T10, human EDAR-Fc (human); test: Western blot, non-reducing, 20 ng human EDAR-Fc (FIG. 7B)
T10 construct: also called hEDAR-Fc; human EDAR (1-183)-Fc
Source text: (§1) The weaker signal obtained with mouse EDAR might be explained by the lower amount of mouse EDAR-Fc loaded on the gel. Binding specificity is established by showing that none of the mAbEDARs does bind to Fas-Fc and Flag-human APRIL (while Flag-human APRIL is recognized by an anti-APRIL mAb). […] The band recognized by mAbEDAR5 in the BSA lane is probably due to a cross-contamination of EDAR-Fc in the neighboring lane.

human Fas-Fc [1] = target: T1, human Fas-Fc; test: Western blot, 20 ng hFas-Fc (FIG. 7B)
Source text: as §1

[2] = target: T2, human EDAR domains I and II fused to Fc …; test: capture ELISA on EDAR-Fc truncation proteins
Source text: (§2) Epitope mapping of anti-EDAR monoclonal antibodies on recombinant human EDAR by ELISA. (A) Schematic linear representation of human EDAR showing the position of cystein residues (thin horizontal lines), of the putative N-linked glycosylation site (thick horizontal line, N), of the six structural modules (rectangles with rounded corners) composing the three cystein-rich domains (CRD1, CRD2, CRD3), of the transmembrane domain (rectangle, TMD), of the signal peptide (Leader), of the stalk and of the intracellular domain (ID). Amino acid numbers at the junctions of interest are indicated. The arrow indicates the predicted cleavage site of the signal peptide. The scheme is drawn to scale, except for the intracellular domain. (B) Wells of ELISA plates were coated with goat anti-human IgG antibody, blocked, and further incubated with human EDAR-Fc, mouse EDAR-Fc or the indicated human EDAR-Fc truncation proteins in cell supernatants of transfected cells. One well was also left without cell supernatant (Ctrl). The efficient capture of the various EDAR-Fc proteins was controlled using horseradish peroxydase-coupled donkey anti-human IgG antibody. Binding of mAbEDARs were monitored with horseradish peroxydase-coupled anti-mouse IgG antibody.
(§3) EDAR is a transmembrane protein whose extracellular part is composed of three membrane distal cystein-rich domains (CRDs) and of a proximal membrane stalk domain (FIG. 9A). Constructs coding for the entire EDAR protein, domains I and II, domains II and III, domain III and the stalk domain, domains I, II and III alone and the stalk domain alone were assembled with the Fc region of human IgG1, inserted into a mammalian expression vector and transiently transfected in 293T cells. […] The other fragments were not recognized, in particular the fragments made up of either domain I or II alone. mAbEDAR5, 6, 12 and 13 specifically recognized domain I, alone or together with domain II. mAbEDAR9, 14 and 15 only recognized Fc constructs containing the entire EDAR extracellular domain.

[3] = target: T3, human EDAR domain I alone fused to Fc …; test: capture ELISA on EDAR-Fc truncation proteins
Source text: as §2, §3

human Fas-Fc [4] = target: T1, human Fas-Fc; test: ELISA on coated human Fas-Fc (FIG. 6C)
Experimental: FIG. 6. Specific binding of the anti-EDAR mAb to both mouse and human EDAR. Graded concentrations of mAbEDAR1-4 or of a control mAb (Aprily 5) were added to wells of a 96-well ELISA plate coated with 100 μl of 1 μg/ml of human EDAR-Fc, mouse EDAR-Fc, human Fas-Fc or Flag-human APRIL. […] The absorbance was measured at 490 nm.
In order to obtain antibodies recognizing both human and mouse EDAR, a feature which would considerably facilitate pre-clinical development of drug candidates, EDAR-deficient mice were immunized with human EDAR. It was then assessed whether monoclonal antibodies generated from these mice indeed recognized EDAR from these two animal species. The wells of microtiter plates were coated with soluble human and mouse EDAR-Fc fusion protein and a negative control protein (human Fas-Fc), blocked and probed with serial dilutions of anti-EDAR monoclonal antibody (mAb) mAbEDAR1, 2, 3 and 4 and a negative control mAb (Aprily 5) (FIG. 6), or with a single dose of mAbEDAR1 to 15 (FIG. 9).

Flag-human APRIL = target: T4, Flag-human APRIL; test: Western blot (FIG. 7A)
Source text: FIG. 7. Use of anti-EDAR mAb in Western blotting.
as §1

[5] = target: T5, human EDAR domain II alone fused to Fc …; test: capture ELISA on EDAR-Fc truncation proteins (FIG. 9)
Source text: as §2, §3

[6] = target: T3, human EDAR domain I alone fused to Fc …; test: as above
Source text: as §2, §3

[7] = target: T6, human EDAR stalk domain alone fused to …; test: as above
Source text: as §2, §3

[8] = target: T7, mEDAR-Fas on Fas-deficient Jurkat cells; test: cell-based or functional assay
[9] = target: T8, hEDAR-Fas on Fas-deficient Jurkat cells; test: cell-based or functional assay
[10] = target: EDAR-Fas fusion protein on Fas-deficient Jurkat cells (human or mouse EDAR not told apart) (human, UniProt P25445 169-335); test: cell-based or functional assay

Row | Binder | binding result (mouse EDAR-Fc) | binding result (human EDAR-Fc) | binding result (human Fas-Fc [1]) | binding result [2] | binding result [3] | binding result (human Fas-Fc [4]) | binding result (Flag-human APRIL) | binding result [5] | binding result [6] | binding result [7] | EC50 (concentration of agonist inducing half maximal decrease of cell viability), mEDAR-Fas Jurkat cells [8] [ng/mL] | EC50 (concentration of agonist inducing half maximal decrease of cell viability), hEDAR-Fas Jurkat cells [9] [ng/mL] | EC50 (concentration of agonist inducing half maximal decrease of cell viability), EDAR-Fas Jurkat cells [10] [ng/mL]
1 | mAbEDAR6 (antibody, IgG2a, V domains shown) VH: EVQLQQSGPELVKPGASVKMSCKASGYSFTGYNMHWVKQSHGKSLEWIGYIDPYNGATSKNQKFKGKATLTVDKSSTTAYIQLNSLTSEDSAVYYCARYYYGDYHWYFDVWGAGTTVTVSS VL: DVVMTQTPLSLPVSLGDQASISCRSSQSLVHSNGNTYLHWYLQQPGQSPKLLIYKVSNRFSGVPDRFSGSGSGTDFTLKISRVEAEDLGVYFCSQHTHVPPTFGAGTKLELKR | binds | binds | no binding | binds | binds | – | – | – | – | – | – | – | –
2 | mAbEDAR5 (antibody, IgG2b, V domains shown) VH: QVQLKQSGPGLVQPSQSLSITCTVSGFSLSNYGVHWIRQSPGKGLEWLGVIWGGGSTDYNAAFISRLSISKDNSKSQVFFKMNSLQADDTAIYYCASYYGYYDWFAYWGQGTLVTVSA VL: EIVLTQSPTTMAASPGEKITITCSASSIISSNYLHWYQQKPGFSPKPLIYRTSNLASGVPARFSGSGSGTSYSLTIGTMEAEDVATYYCQQGSSIPRTFGSGTKLEIKR | binds | binds | no binding | binds | binds | – | – | – | – | – | – | – | –
3 | Fc-EDA1 (Fc fusion, UniProt Q92838 245-391, looked up, not shown: a dimerising Fc or GST) ENQPAVVHLQGQGSAIQVKNDLSGGVLNDWSRITMNPKVFKLHPRSGELEVLVDGTYFIYSQVEVYYINFTDFASYEVVVDEKPFLQCTRSIETGKTNYNTCYTAGVCLLKARQKIAVKMVHADISINMSKHTTFFGAIRLGEAPAS | – | – | – | – | – | – | – | – | – | – | ~1 | ~1 | 3 to 9

More lines, main results first:

Row | binding result (mouse EDAR-Fc) | binding result (human EDAR-Fc) | binding result (human Fas-Fc [1]) | binding result [2] | binding result [3] | binding result (human Fas-Fc [4]) | binding result (Flag-human APRIL) | binding result [5] | binding result [6] | binding result [7] | Binder | EC50 (concentration of agonist inducing half maximal decrease of cell viability), mEDAR-Fas Jurkat cells [8] [ng/mL] | EC50 (concentration of agonist inducing half maximal decrease of cell viability), hEDAR-Fas Jurkat cells [9] [ng/mL] | EC50 (concentration of agonist inducing half maximal decrease of cell viability), EDAR-Fas Jurkat cells [10] [ng/mL]
4 | – | – | – | binds | – | no binding | no binding | no binding | no binding | no binding | mAbEDAR1 (antibody, IgG1, V domains shown, also called anti-EDAR mAb mAbEDAR1) VH: EVPLEESGGGLVKPGGSRKLSCAASGFTFSDHGMHWVRQAPEKGLEWIAYISSGSSNVYYSDTVKGRFTISRDNAKNTLFLQMTSLRSEDTAMYYCARRELLRFYFDVWGAGTTVTVSS VL: DIQMTQTTSSLSASLGDRVTISCRASQDIGNHLNWYQQKPDGTVKLLIYYTSRIHSGVPSRFSGSGSGTDYSLTISNLEQEDIATYFCQQGNTLPWTFGGGTKLEIKR | – | – | –
5 | – | – | no binding | binds | – | – | no binding | no binding | no binding | no binding | mAbEDAR3 (antibody, IgG1, V domains shown, also called anti-EDAR mAb mAbEDAR3) VH: EVPLEESGGGLVKPGGSRKLSCAASGFTFSDYGMHWVRQAPEKGLEWVAYISSGSSAIYYADTVKGRFTISRDNAKSTLFLQMTSLRSEDTAMYYCARREILRYYFDVWGAGTTVTVSS VL: DIQMTQSTSSLSASLGDRVTISCRASQDISNNLNWYQQRPDGTVKLLIYYTSRSQSGVPSRFSGSGSGTDYSLTISNLEQEDVATYFCHQGKTLPYTFGGGTKLEIKR | – | – | –

From US20130273046A1 (UNIVERSITE DE LAUSANNE, published 2013)
